Results reported in patent US20180155411A1 (Stanford University, published 2018).
Numbering of substitutions follows the chain as printed.

Columns and labels:
[1] = target: T1, VP4 of rotavirus strain Wa (G1P[8]) (human rotavirus, UniProt P11193 1-775); experiment: cell-based or functional assay
[2] = target: T1, VP4 of rotavirus strain Wa (G1P[8]); experiment: immunostaining, RV-infected MA104 cells
[3] = target: T2, CDC-9 triple layered particles (TLPs), G1P[8] (human rotavirus); experiment: ELISA, CDC-9 TLPs
[4] = target: VP7 of rotavirus strain 69M (G8P[10]) (human rotavirus); experiment: cell-based or functional assay
[5] = target: VP7 of rotavirus strain #321 (G10P[11]) (human rotavirus); experiment: cell-based or functional assay
[6] = target: VP7 of rotavirus strain DS1 (G2P[4]) (human rotavirus); experiment: cell-based or functional assay
[7] = target: T3, VP7 of rotavirus strain RRV (G3P[3]) (simian rotavirus, UniProt P12476 51-326); experiment: cell-based or functional assay
[8] = target: VP7 of rotavirus strain OSU (G5P[7]) (porcine rotavirus); experiment: cell-based or functional assay
[9] = target: T4, VP7 of rotavirus strain DS1 (G2P[4]) (human rotavirus); experiment: immunostaining, RV-infected MA104 cells
T4 construct: whole, on cells

[10] = target: T5, VP7 of rotavirus strain ST3 (G4P[6]) (human rotavirus); experiment: immunostaining, RV-infected MA104 cells
T5 construct: whole, on cells

[11] = target: T3, VP7 of rotavirus strain RRV (G3P[3]); experiment: immunostaining, RV-infected MA104 cells
[12] = target: T6, VP7 of rotavirus strain OSU (G5P[7]) (porcine rotavirus); experiment: immunostaining, RV-infected MA104 cells
T6 construct: whole, on cells; also called OSU G5[7]

[13] = target: VP4 of rotavirus strain 69M (G8P[10]) (human rotavirus); experiment: cell-based or functional assay
[14] = target: VP4 of rotavirus strain #321 (G10P[11]) (human rotavirus); experiment: cell-based or functional assay
[15] = target: VP4 of rotavirus strain NCDV (G6P[1]) (bovine rotavirus); experiment: cell-based or functional assay
[16] = target: VP4 of rotavirus strain OSU (G5P[7]) (porcine rotavirus); experiment: cell-based or functional assay
[17] = target: T7, VP4 of rotavirus strain DS1 (G2P[4]) (human rotavirus, UniProt Q14197); experiment: immunostaining, RV-infected MA104 cells
T7 construct: whole, on cells

[18] = target: T8, VP4 of rotavirus strain ST3 (G4P[6]) (human rotavirus); experiment: immunostaining, RV-infected MA104 cells
T8 construct: whole, on cells

[19] = target: T9, VP4 of rotavirus strain NCDV (G6P[1]) (bovine rotavirus); experiment: immunostaining, RV-infected MA104 cells
T9 construct: whole, on cells

[20] = target: T10, VP4 of rotavirus strain OSU (G5P[7]) (porcine rotavirus); experiment: immunostaining, RV-infected MA104 cells
T10 construct: whole, on cells; also called OSU G5[7]

[21] = target: T11, VP7 of rotavirus strain Wa (G1P[8]) (human rotavirus, UniProt P03532 51-326); experiment: cell-based or functional assay
[22] = target: T11, VP7 of rotavirus strain Wa (G1P[8]); experiment: immunostaining, RV-infected MA104 cells
[23] = target: T2, CDC-9 triple layered particles (TLPs), …; experiment: cell-based or functional assay
[24] = target: T7, VP4 of rotavirus strain DS1 (G2P[4]); experiment: cell-based or functional assay

T11 sequence (P03532 51-326 limits assumed): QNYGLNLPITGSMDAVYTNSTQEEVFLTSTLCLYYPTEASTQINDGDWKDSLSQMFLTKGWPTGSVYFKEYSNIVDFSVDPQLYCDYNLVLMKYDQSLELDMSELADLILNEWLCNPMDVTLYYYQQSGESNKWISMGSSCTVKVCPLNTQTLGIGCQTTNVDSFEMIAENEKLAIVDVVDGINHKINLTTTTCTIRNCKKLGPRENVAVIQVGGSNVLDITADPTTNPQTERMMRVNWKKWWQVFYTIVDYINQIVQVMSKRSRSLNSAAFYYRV
T1 sequence (P11193 whole entry): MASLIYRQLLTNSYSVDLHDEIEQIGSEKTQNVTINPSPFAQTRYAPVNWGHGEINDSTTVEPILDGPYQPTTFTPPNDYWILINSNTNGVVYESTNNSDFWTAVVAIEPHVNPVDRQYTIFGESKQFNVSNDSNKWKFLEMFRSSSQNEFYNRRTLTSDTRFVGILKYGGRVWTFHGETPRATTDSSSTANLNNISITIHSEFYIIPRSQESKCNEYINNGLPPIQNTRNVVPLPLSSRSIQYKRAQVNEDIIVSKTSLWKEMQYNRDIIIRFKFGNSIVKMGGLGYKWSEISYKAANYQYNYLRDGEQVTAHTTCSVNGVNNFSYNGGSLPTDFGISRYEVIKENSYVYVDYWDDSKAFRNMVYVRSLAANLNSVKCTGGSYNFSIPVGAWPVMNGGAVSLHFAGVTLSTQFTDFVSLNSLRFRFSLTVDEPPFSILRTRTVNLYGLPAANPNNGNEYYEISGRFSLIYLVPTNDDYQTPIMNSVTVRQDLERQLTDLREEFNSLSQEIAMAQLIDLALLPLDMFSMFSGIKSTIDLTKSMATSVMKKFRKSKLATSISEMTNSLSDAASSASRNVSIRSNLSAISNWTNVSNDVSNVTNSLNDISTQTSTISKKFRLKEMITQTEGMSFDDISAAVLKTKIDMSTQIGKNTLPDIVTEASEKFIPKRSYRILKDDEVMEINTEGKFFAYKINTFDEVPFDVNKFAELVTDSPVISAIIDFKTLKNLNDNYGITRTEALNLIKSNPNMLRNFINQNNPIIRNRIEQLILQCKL
T9 sequence (P17465 whole entry): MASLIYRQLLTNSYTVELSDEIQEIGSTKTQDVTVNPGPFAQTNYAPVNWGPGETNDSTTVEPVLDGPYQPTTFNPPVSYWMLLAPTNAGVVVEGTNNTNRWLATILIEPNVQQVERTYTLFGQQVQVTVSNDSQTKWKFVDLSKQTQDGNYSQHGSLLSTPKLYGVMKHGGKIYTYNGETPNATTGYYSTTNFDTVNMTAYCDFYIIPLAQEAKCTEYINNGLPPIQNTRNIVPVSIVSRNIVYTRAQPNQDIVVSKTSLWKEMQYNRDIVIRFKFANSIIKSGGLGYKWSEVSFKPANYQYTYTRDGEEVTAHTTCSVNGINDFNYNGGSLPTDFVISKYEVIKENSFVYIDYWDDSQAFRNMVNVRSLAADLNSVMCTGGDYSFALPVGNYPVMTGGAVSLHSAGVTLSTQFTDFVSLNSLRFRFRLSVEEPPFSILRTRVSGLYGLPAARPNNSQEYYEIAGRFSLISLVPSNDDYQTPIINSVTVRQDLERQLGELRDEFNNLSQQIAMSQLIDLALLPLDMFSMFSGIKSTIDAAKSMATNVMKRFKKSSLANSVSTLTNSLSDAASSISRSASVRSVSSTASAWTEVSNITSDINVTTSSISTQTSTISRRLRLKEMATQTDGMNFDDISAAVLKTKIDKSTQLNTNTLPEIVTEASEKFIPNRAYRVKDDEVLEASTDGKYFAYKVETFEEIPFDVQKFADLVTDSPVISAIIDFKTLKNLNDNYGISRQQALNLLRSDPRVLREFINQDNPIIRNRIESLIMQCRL
T6 sequence (P08406 51-326): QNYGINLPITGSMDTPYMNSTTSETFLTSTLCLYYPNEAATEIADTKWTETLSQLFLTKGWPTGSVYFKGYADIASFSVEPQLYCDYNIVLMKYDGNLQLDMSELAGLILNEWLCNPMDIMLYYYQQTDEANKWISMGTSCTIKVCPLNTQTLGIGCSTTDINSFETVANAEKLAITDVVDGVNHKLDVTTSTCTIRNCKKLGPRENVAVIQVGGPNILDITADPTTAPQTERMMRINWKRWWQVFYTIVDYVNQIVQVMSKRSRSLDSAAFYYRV
T4 sequence (P11850 51-326): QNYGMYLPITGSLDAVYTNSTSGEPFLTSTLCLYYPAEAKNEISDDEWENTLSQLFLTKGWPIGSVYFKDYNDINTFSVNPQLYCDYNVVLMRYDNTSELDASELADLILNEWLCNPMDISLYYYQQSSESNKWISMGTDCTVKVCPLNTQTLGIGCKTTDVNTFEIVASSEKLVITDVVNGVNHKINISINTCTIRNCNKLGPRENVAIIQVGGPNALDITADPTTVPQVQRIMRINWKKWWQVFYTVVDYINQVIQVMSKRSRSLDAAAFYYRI
T10 sequence (P11114 whole entry): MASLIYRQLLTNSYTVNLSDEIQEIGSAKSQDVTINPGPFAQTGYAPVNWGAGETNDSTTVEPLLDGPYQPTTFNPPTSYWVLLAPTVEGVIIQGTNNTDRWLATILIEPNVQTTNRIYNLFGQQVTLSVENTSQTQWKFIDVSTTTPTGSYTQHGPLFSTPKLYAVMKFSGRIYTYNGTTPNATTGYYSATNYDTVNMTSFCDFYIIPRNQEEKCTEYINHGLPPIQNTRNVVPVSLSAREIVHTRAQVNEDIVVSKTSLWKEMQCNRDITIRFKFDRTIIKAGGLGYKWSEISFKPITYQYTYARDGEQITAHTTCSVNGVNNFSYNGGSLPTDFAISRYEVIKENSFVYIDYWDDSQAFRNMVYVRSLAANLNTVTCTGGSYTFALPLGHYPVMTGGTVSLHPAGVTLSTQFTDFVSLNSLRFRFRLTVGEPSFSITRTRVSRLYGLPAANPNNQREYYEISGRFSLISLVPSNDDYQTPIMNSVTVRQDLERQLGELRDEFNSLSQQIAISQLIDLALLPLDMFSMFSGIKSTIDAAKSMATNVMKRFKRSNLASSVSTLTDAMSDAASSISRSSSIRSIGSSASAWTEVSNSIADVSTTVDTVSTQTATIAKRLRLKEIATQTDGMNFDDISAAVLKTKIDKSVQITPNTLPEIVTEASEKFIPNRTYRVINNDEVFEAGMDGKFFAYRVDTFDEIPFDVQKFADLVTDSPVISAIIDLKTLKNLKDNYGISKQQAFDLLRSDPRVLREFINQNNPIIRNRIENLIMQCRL
T3 sequence (P12476 51-326): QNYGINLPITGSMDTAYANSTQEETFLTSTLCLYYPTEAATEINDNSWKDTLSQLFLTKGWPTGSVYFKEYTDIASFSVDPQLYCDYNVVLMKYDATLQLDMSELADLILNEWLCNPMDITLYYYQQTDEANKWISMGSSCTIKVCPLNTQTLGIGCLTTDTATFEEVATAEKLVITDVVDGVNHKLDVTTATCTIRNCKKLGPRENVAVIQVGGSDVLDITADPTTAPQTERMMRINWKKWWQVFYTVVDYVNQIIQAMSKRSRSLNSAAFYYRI
T5 sequence (P10501 51-326): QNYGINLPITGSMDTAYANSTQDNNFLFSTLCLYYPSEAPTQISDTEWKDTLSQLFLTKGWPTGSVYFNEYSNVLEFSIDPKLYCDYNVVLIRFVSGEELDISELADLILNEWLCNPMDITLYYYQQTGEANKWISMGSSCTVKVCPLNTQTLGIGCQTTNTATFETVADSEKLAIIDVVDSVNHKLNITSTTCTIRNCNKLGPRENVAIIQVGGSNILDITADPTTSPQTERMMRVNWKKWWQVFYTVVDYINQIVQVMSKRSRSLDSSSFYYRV
T8 sequence (P11200 whole entry): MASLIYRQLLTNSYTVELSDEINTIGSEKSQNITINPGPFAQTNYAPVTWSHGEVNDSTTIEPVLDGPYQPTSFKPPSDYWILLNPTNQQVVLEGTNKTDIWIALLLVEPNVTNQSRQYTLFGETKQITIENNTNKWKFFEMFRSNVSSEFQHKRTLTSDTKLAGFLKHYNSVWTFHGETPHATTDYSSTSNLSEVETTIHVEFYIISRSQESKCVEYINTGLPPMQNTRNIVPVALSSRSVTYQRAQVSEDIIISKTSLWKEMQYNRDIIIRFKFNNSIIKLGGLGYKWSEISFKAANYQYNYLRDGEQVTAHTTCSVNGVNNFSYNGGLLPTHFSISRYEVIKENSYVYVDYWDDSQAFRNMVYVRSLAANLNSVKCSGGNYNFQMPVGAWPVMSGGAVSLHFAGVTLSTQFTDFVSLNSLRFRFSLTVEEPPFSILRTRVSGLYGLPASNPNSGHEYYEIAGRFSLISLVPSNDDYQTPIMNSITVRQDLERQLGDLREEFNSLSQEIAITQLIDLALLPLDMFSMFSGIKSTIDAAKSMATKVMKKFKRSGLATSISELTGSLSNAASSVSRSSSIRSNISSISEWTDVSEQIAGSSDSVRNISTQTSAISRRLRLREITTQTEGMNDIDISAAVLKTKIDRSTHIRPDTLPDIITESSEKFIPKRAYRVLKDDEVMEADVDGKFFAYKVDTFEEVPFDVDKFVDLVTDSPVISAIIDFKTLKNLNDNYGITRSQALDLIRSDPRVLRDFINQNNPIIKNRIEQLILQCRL

B1: mAb #30 (antibody, V domains shown)
VH: QVQLVQSGAEVKKPGASVTVSCKASGYAFTSFYLHWVRQAPGQGLEWMGIINPSDGRTRYAQKFQGRVTMTSDTSTNTVYVELSSLRSEDTAIYYCARGAIGNYNAREALDVWGRGTTVTVSS
VL: EIVMTQSPATLSVSPGESATLSCRASQSINSNLAWYQQKPGQAPRLLIFSASSRATGIPARFSGSGSGTEFTLTISSLQSDDFAVYYCQQYNIWPPEHTFGQGTRLQIK
notes: also called mAb ID: 30; Mab No. 30
minimum neutralizing concentration [1]: 0.6 ng/mL | Endpoint immunostaining concentration [2]: 5 ng/mL

B2: mAb #57 (antibody, V domains shown)
VH: QVQLVESGGGVVQSGRSLRLSCAASGFTFRSYAMHWVRQAPGKGLEWVADLSLDGSHKYADSVRGRFTISSDSSKNTVYLQMNSLRTEDTAIYYCARAAGIMVAGTFLTEFYFDYWGQGTLVTVSS
VL: QSVLTQPPSVSGAPGQRVTISCTGSSSNIGAGYDVHWYQQLPGTAPKLLIYGNIKRPSGVPDRFSGSKSGTSASLAITGLQTEDEADYYCQSYDSSLSAYYVFGTGTRVTVL
notes: also called mAb ID: 57; Mab No. 57
Minimum concentration for TLP binding [3]: 0.5 ng/mL | in vitro neutralization [4]: > 625 ng/mL | in vitro neutralization [5]: > 625 ng/mL | minimum neutralizing concentration [6]: 4.9 ng/mL | minimum neutralizing concentration [7]: 1.2 ng/mL | minimum neutralizing concentration [8]: 19.5 ng/mL | Endpoint immunostaining concentration [9]: 0.5 ng/mL | Endpoint immunostaining concentration [10]: 500 ng/mL | Endpoint immunostaining concentration [11]: 5 ng/mL | Endpoint immunostaining concentration [12]: 50 ng/mL

B3: mAb #33 (antibody, V domains shown)
VH: DVQLVESGGGLVQPGGPSRLSCSASRFTFSNYAMYWVRQAPGKGLEYVSSISSDGGSTYYAESVKGRFTISRDNSKNTLYLQMRSLRAEDAAVYYCVTDVLRLPYSTGWSPGDFIYWGQGTLVTVSS
VL: DIQMTQSPSILYASVGDRVTITCRASQSVSSWLAWYQQKPGKVPKLLIYQASTLENGVPSRFSGSGSGTEFILTISSLQPDDFATYYCQHYNVLWTFGQGTKVEI
notes: also called mAb ID: 33; Mab No. 33
minimum neutralizing concentration [1]: 2.4 ng/mL | Endpoint immunostaining concentration [2]: 50 ng/mL

B4: mAb #49 (antibody, V domains shown)
VH: B3 VH with P17S, S18V
VL: DIQMTQSPSILYASVGDRVTITCRASQSVSSWLAWYQQKPGKVPKLLIYQASTLENGVPSRFSGSGSGTEFILTISSLQPDDFATYYCQHYNVLWTFGQGTKVEIK
notes: also called mAb ID: 49; Mab No. 49
Minimum concentration for TLP binding [3]: 5 ng/mL | in vitro neutralization [13]: > 625 ng/mL | in vitro neutralization [14]: > 625 ng/mL | minimum neutralizing concentration [1]: 39.1 ng/mL | minimum neutralizing concentration [15]: 39.1 ng/mL | minimum neutralizing concentration [16]: 156 ng/mL | Endpoint immunostaining concentration [2]: 5 ng/mL | Endpoint immunostaining concentration [17]: 0.5 ng/mL | Endpoint immunostaining concentration [18]: 5 ng/mL | Endpoint immunostaining concentration [19]: 5.6 ng/mL | Endpoint immunostaining concentration [20]: 5.6 ng/mL

B5: mAb #27 (antibody, V domains shown)
VH: QVQLQESGPGLVKPLETLSLTCAVSGVSINSYYWSWIRQPPGKGLEWIGNVFYSGSTKYNPSLESRVAMTVDSSRNQVSLRLNSVTAADTAVYYCAREGVGYGYNNYGGNWFDPWGQGTLVTVSS
VL: EVVLTQSPGTLSLSPGERVTLSCRASQSVTSSNLAWYQQKPGQTPRLLISGASSRATGIPDRFSGSGSGTDFTLTISRLEPEDFAVYYCQQYANSPVTFGGGTKLEIK
notes: also called mAb ID: 27; Mab No. 27
minimum neutralizing concentration [21]: 0.3 ng/mL | Endpoint immunostaining concentration [22]: 0.5 ng/mL

B6: mAb #47 (antibody, V domains shown)
VH: QVQLQESGPGLVKPSETLSLTCSVSGGSISVYYWNWIRQSPGKGLEWIASMYYTGITNYNPSLKSRVTMSVDMSKNQFSLKLSSVTAADTAVYYCARTMGIDQNNRGWPPAGYYFGMDVWGQGTTVTVSS
VL: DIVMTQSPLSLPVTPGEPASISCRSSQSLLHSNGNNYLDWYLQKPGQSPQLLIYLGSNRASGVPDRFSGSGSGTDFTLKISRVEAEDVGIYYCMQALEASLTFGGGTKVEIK
notes: also called mAb ID: 47; Mab No. 47
Minimum concentration for TLP binding [3]: 0.5 ng/mL | in vitro neutralization [13]: > 625 ng/mL | in vitro neutralization [14]: > 625 ng/mL | minimum neutralizing concentration [23]: 4.9 ng/mL | minimum neutralizing concentration [24]: 4.9 ng/mL | Endpoint immunostaining concentration [2]: 0.5 ng/mL | Endpoint immunostaining concentration [17]: 0.5 ng/mL

B7: mAb #46 (antibody, V domains shown)
VH: QVQLQESGPGLVKPSETLSLTCTVSGGSINSYYWSWIRQSPGKGLEWIGYVFYSGITKYNPSLQSRVTISLDMGKNQFSLKLTSVNAADAAVYYCARNFPSYTPDWFFDLWGRGTLVTVSS
VL: EIVLTQSPGTLSLSPGERATLSCRASQSVSSDNLAWYQQKPGQPPRLLIYGASHRATGIPDRFSGSGSGTDFTLTISRLEPEDFAVYHCQQYGSSPLTFGGGTKVEIK
notes: also called mAb ID: 46; Mab No. 46
Minimum concentration for TLP binding [3]: 0.5 ng/mL | in vitro neutralization [4]: > 625 ng/mL | in vitro neutralization [5]: > 625 ng/mL | minimum neutralizing concentration [21]: 2.4 ng/mL | Endpoint immunostaining concentration [22]: 0.5 ng/mL

B8: mAb #2 (antibody, V domains shown)
VH: EVQLVESGGGLVKPGGSLRLSCKASGLIVSDAWMSWVRQSPGKGLEWVGRIKSEINGGTIDYAAPVKGRFTILRDDSKNTLYLQINSLKTEDTAVYYCTTRLLFSPWGQGTLVTVSS
VL: QPVLTQPPSSSASPGESARLTCTLPSDINVAYYNIYWYQQKPGSPPRYLLYYYSDSDQGQGSGVPSRFSGSKDASANTGILFISGLQSEDEADYYCMIWTSNASMFGGGTKLTVL
notes: also called mAb ID: 2; Mab No. 2
Endpoint immunostaining concentration [2]: 5 ng/mL

B9: mAb #41 (antibody, V domains shown)
VH: EVQLVESGGGPVQPGGSLKLSCAASGFTFSNYEMYWVRQAPGKGLEWVSYISTSPAITYYADSVRGRFTISRDNAKSSLYLHMNSLRAEDTAVYYCATISHQQFSSGWNAWFDPWGQGTLVTVSS
VL: NFMLTQPHSVSESPGKTVTISCTGSSGSIASNYVQWYRQRPGSAPTTVIYENYQRPSGVPARFSGSIDRSSNSASLTISGLQTDDEADYYCQSYDNNNLWVFGGGTKLTVL
notes: also called mAb ID: 41; Mab No. 41
minimum neutralizing concentration [1]: 0.6 ng/mL | Endpoint immunostaining concentration [2]: 0.5 ng/mL
